Data reported in PMC7173060 (Journal of Molecular Biology, 2004).

Biological target: the molecule itself
Assay: cross-linking

B1: full-length rabies virus phosphoprotein (P), C-terminal His-tagged (natural protein)
chain: MSKIFVNPSAIRAGLADLEMAEETVDLINRNIEDNQAHLQGEPIEVDNLPEDMKRLHLDDEKSSNLGEMVRVGEGKYREDFQMDEGEDPNLLFQSYLDNVGVQIVRQMRSGERFLKIWSQTVEEIVSYVTVNFPNPPRRSSEDKSTQTTGRELKKETTSAFSQRESQPSKARMVAQVAPGPPALEWSATNEEDDLSVEAEIAHQIAESFSKKYKFPSRSSGIFLYNFEQLKMNLDDIVKEAKNVPGVTRLAHDGSKIPLRCVLGWVALANSKKFQLLVEADKLSKIMQDDLNRYTSC
B1: binds.
